Laboratory results as given in the supplement of paper PMC10567573.

B1: INTS4 (parent)
chain: AKQIMEETYKMEFMYSGVENKQVV
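Further: lentivirally expressed fusions sorted by FACS into six bins by GFP to DsRed ratio, PSI derived from sequencing read proportions per bin multiplied by bin number.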

Variants of: B1
Assay: protein stability index of a GFP-peptide fusion (GPS, HEK-293T) (PSI 1-6); higher = more stable
Settings: c terminus: a fixed tail appended
With AKQIMEETYKMEFMGSGVENKQVV [Y15G] the protein stability index was 1.55. For AKQIMEETYKMEFMVSGVENKQVV [Y15V], the protein stability index was 1.69. For AKQIMEETYKMEFMRSGVENKQVV [Y15R], the protein stability index was 2.67. In the case of AKQIMEETYKMEFMESGVENKQVV [Y15E], the protein stability index is reported as 2.9. AKQIMEETYKMEFMASGVENKQVV [Y15A] gave a protein stability index of 2.57. Work on AKQIMEETYKMEFMKSGVENKQVV [Y15K] yielded a protein stability index of 2.62. AKQIMEETYKMEFMYSGVEQKQVV [N20Q] gave a protein stability index of 2.84. Variant AKQIMEETYKMEFMYSGVEGKQVV [N20G] has a protein stability index of 2.55. With AKQIMEETYKMEFMYSGVESKQVV [N20S] the protein stability index was 1.44. For AKQIMEETYKMEFMYSGVEKKQVV [N20K], the protein stability index was 1.46. AKQIMEETYKMEFMYSGVELKQVV [N20L] gave a protein stability index of 1.29. In the case of AKQIMEETYKMEFMYSGVEWKQVV [N20W], the protein stability index is reported as 3.06. In the case of AKQIMEETYKMEFMYSGVEPKQVV [N20P], the protein stability index is reported as 1.72. In the case of AKRIMEETYKMEFMYSGVENKQVV [Q3R], the protein stability index is reported as 1.7. Variant AKWIMEETYKMEFMYSGVENKQVV [Q3W] has a protein stability index of 2.53. AKGIMEETYKMEFMYSGVENKQVV [Q3G] showed a protein stability index of 3.49. For AKIIMEETYKMEFMYSGVENKQVV [Q3I], the protein stability index was 2.17. With AKMIMEETYKMEFMYSGVENKQVV [Q3M] the protein stability index was 1.51. Work on AKTIMEETYKMEFMYSGVENKQVV [Q3T] yielded a protein stability index of 1.85. AKFIMEETYKMEFMYSGVENKQVV [Q3F] gave a protein stability index of 1.97. Variant AKCIMEETYKMEFMYSGVENKQVV [Q3C] has a protein stability index of 1.42. With AKEIMEETYKMEFMYSGVENKQVV [Q3E] the protein stability index was 2.3. Work on AKQIREETYKMEFMYSGVENKQVV [M5R] yielded a protein stability index of 2.87. Work on AKQIEEETYKMEFMYSGVENKQVV [M5E] yielded a protein stability index of 3.67. For AKQIIEETYKMEFMYSGVENKQVV [M5I], the protein stability index was 1.08. AKQIQEETYKMEFMYSGVENKQVV [M5Q] gave a protein stability index of 3.25. AKQIDEETYKMEFMYSGVENKQVV [M5D] showed a protein stability index of 3.99. AKQINEETYKMEFMYSGVENKQVV [M5N] gave a protein stability index of 3.75. With AKQIAEETYKMEFMYSGVENKQVV [M5A] the protein stability index was 3.14. With AKQIFEETYKMEFMYSGVENKQVV [M5F] the protein stability index was 1.79. Work on AKQIWEETYKMEFMYSGVENKQVV [M5W] yielded a protein stability index of 2.11. With AKQIYEETYKMEFMYSGVENKQVV [M5Y] the protein stability index was 2.71. For AKQICEETYKMEFMYSGVENKQVV [M5C], the protein stability index was 2.87. Work on AKQIHEETYKMEFMYSGVENKQVV [M5H] yielded a protein stability index of 2.76. Work on AKQIGEETYKMEFMYSGVENKQVV [M5G] yielded a protein stability index of 3.53. For AKQISEETYKMEFMYSGVENKQVV [M5S], the protein stability index was 3.08. For AKQIMEETYKMEFMYSGVENKQHV [V23H], the protein stability index was 1.88. For AKQIMEETYKMEFMYSGVENKQFV [V23F], the protein stability index was 1.16. Variant AKQIMEETYKMEFMYSGVENKQKV [V23K] has a protein stability index of 1.71. AKQIMEETYKMEFMYSGVENKQAV [V23A] showed a protein stability index of 1.8. Variant AKQIMEETYKMEFMYSGVENKQTV [V23T] has a protein stability index of 1.46. AKQIMEETYKMEFMYSGVENKQCV [V23C] gave a protein stability index of 1.6. Variant AKQIMEETYKMEFMYSGVENKQEV [V23E] has a protein stability index of 1.97. In the case of AKQIMEETYKMDFMYSGVENKQVV [E12D], the protein stability index is reported as 2.18. In the case of AKQIMEETYKMTFMYSGVENKQVV [E12T], the protein stability index is reported as 2.33. For AKQIMEETYKMKFMYSGVENKQVV [E12K], the protein stability index was 1.59. In the case of AKQIMEETYKMYFMYSGVENKQVV [E12Y], the protein stability index is reported as 2.44. For AKQIMEETYKMSFMYSGVENKQVV [E12S], the protein stability index was 1.61. In the case of AKQIMEETYKMPFMYSGVENKQVV [E12P], the protein stability index is reported as 3.16. With AKQIMEETYKMNFMYSGVENKQVV [E12N] the protein stability index was 1.81. In the case of AKQIMEETYKMAFMYSGVENKQVV [E12A], the protein stability index is reported as 2.97. For AKQIMEETYRMEFMYSGVENKQVV [K10R], the protein stability index was 3.13. With AKQIMEETYVMEFMYSGVENKQVV [K10V] the protein stability index was 2.64. With AKQIMEETYFMEFMYSGVENKQVV [K10F] the protein stability index was 1.13. Work on AKQIMEETYHMEFMYSGVENKQVV [K10H] yielded a protein stability index of 1.25. For AKQIMEETYEMEFMYSGVENKQVV [K10E], the protein stability index was 3.15. For AKQIMEETYKMEFMYSGVQNKQVV [E19Q], the protein stability index was 1.84. With AKQIMEETYKMEFMYSGVKNKQVV [E19K] the protein stability index was 1.07. For AKQIMEETYKMEFMYSGVINKQVV [E19I], the protein stability index was 1.54. AKQIMEETYKMEFMYSGVVNKQVV [E19V] showed a protein stability index of 1.28. Work on AKQIMEETYKMEFMYSGVGNKQVV [E19G] yielded a protein stability index of 1.9. For AKQIMEETYKMEFMYSGVNNKQVV [E19N], the protein stability index was 1.91. In the case of AKQIMEETYKMEFMYSGVYNKQVV [E19Y], the protein stability index is reported as 1.09. For AKQIMEETYKMEFMYSGVRNKQVV [E19R], the protein stability index was 1.95. Variant AKQIMEENYKMEFMYSGVENKQVV [T8N] has a protein stability index of 2.42. For AKQIMEEWYKMEFMYSGVENKQVV [T8W], the protein stability index was 2.71. Work on AKQIMEEAYKMEFMYSGVENKQVV [T8A] yielded a protein stability index of 1.63. AKQIMEEPYKMEFMYSGVENKQVV [T8P] gave a protein stability index of 3.46. AKQIMEEEYKMEFMYSGVENKQVV [T8E] showed a protein stability index of 2.69. Variant AKQIMEEYYKMEFMYSGVENKQVV [T8Y] has a protein stability index of 1.92. Work on AKQIMEELYKMEFMYSGVENKQVV [T8L] yielded a protein stability index of 2.67. Work on AKQIMEEGYKMEFMYSGVENKQVV [T8G] yielded a protein stability index of 1.41. With AKQIMGETYKMEFMYSGVENKQVV [E6G] the protein stability index was 3.01. In the case of AKQIMMETYKMEFMYSGVENKQVV [E6M], the protein stability index is reported as 3.07. For AKQIMFETYKMEFMYSGVENKQVV [E6F], the protein stability index was 2.01. For AKQIMHETYKMEFMYSGVENKQVV [E6H], the protein stability index was 2.21. AKQIMIETYKMEFMYSGVENKQVV [E6I] gave a protein stability index of 2.61. AKQIMQETYKMEFMYSGVENKQVV [E6Q] gave a protein stability index of 1.77. Variant AKQIMAETYKMEFMYSGVENKQVV [E6A] has a protein stability index of 2.25. Variant AKQIMRETYKMEFMYSGVENKQVV [E6R] has a protein stability index of 2.48. Work on AKQIMDETYKMEFMYSGVENKQVV [E6D] yielded a protein stability index of 3.17. In the case of AKQIMYETYKMEFMYSGVENKQVV [E6Y], the protein stability index is reported as 1.61. In the case of AKQIMTETYKMEFMYSGVENKQVV [E6T], the protein stability index is reported as 1.76. For AKQIMSETYKMEFMYSGVENKQVV [E6S], the protein stability index was 2.47. Work on AKQIMVETYKMEFMYSGVENKQVV [E6V] yielded a protein stability index of 2.54. With AKQIMEETYKMEFMYSPVENKQVV [G17P] the protein stability index was 1.29. Variant AKQIMEETYKMEFMYSQVENKQVV [G17Q] has a protein stability index of 2.37. With AKQIMEETYKMEFMYSYVENKQVV [G17Y] the protein stability index was 1.84. In the case of AKQIMEETYKMEFMYSAVENKQVV [G17A], the protein stability index is reported as 1.51. Variant AKQIMEETYKMEFMYSMVENKQVV [G17M] has a protein stability index of 1.65. For AKQIMEETYKMEFMYSGVENKQVT [V24T], the protein stability index was 1.72. AKQIMEETYKMEFMYSGVENKQVL [V24L] gave a protein stability index of 1.73. Work on AKQIMEETYKMEFMYSGVENKQVD [V24D] yielded a protein stability index of 2.56. For AKQIMEETYKMEFMYSGVENKQVY [V24Y], the protein stability index was 2.01.
